In the supplement of paper PMC10567573 one finds protein stability index data, which are given here for 36 sequences.

This data set is described as follows: protein stability index of a GFP-peptide fusion (GPS, HEK-293T) (PSI 1-6); higher = more stable. The following applies: c terminus: a fixed tail appended.

± gives the standard deviation.
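Note: 24-mer peptide tiles fused after GFP, lentivirally expressed, FACS-sorted into six equal bins by GFP/DsRed ratio, decoded by Illumina sequencing, PSI is the read-weighted mean bin number.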

DDHECCERVVINISGLRFETQLKT [KCNA1]: the protein stability index runs as follows: (treatment: DMSO) 2.79 ± 0.3; (treatment: MLN4924 1 uM, 8 h) 2.61 ± 0.25.

In the case of DDMLLFDEQEKGIVTKFYQLSATG [FAN1], the protein stability index reads like this: (treatment: DMSO) 3.57 ± 0.3; (treatment: MLN4924 1 uM, 8 h) 3.46 ± 0.2.

Turning to DDYLHKDTGETSMLKRPVLLHLHQ [STEAP1], the protein stability index amounted to 3.31 ± 0.21 (treatment: DMSO) and 3.17 ± 0.16 (treatment: MLN4924 1 uM, 8 h).

As for DEGGFTCFFRDHSYQEEAAMELKV [MOG], the protein stability index (treatment: DMSO) amounted to 3.57 ± 0.26 and the protein stability index (treatment: MLN4924 1 uM, 8 h) was determined as 3.7 ± 0.34.

Take DERAMELLIDFAYTSQITVEEGNV [KLHL20]: the protein stability index (treatment: DMSO) was 2.54 ± 0.21 and the protein stability index (treatment: MLN4924 1 uM, 8 h) stood at 3.04 ± 0.2.

DESVVMPESQMCRKFSRECEDQKQ [NEUROD6]: the protein stability index was 5.46 ± 0.3 (treatment: DMSO) and 5.43 ± 0.24 (treatment: MLN4924 1 uM, 8 h).

As to DGISIPELREACDYLCISFEYSTI [BTBD10], the protein stability index by setting is: (treatment: DMSO) 3.18 ± 0.93; (treatment: MLN4924 1 uM, 8 h) 2.87 ± 0.56.

With DGLPDLGHAQDLMDGLPPGDSNQL [CTNNB1], the protein stability index turned out to be 5.33 ± 0.26 (treatment: DMSO) and 5.4 ± 0.19 (treatment: MLN4924 1 uM, 8 h).

As to DGVEVDDSYCDALTRPEPVHEFCA [ADAMTSL2], the protein stability index by setting is: (treatment: DMSO) 4.57 ± 0.23; (treatment: MLN4924 1 uM, 8 h) 4.86 ± 0.24.

Regarding DKFIEDYLLPDTCFRMQINHAIDI [OAS1], the protein stability index was 2.59 ± 0.36 (treatment: DMSO) and 2.17 ± 0.44 (treatment: MLN4924 1 uM, 8 h).

Regarding DKGGRVVIFQREQESKNQVHRRGE [PPP2R2B], the protein stability index was 4.59 ± 0.32 (treatment: DMSO) and 4.95 ± 0.29 (treatment: MLN4924 1 uM, 8 h).

As for DKNTLKDHMRKKQHRKINPKNREY [ZNF277], the protein stability index by setting is: (treatment: DMSO) 3.3 ± 0.33; (treatment: MLN4924 1 uM, 8 h) 3.28 ± 0.35.

Sequence DKQKLKRTEIISRSWFPSAPGSAS [YJU2B] showed a protein stability index (treatment: DMSO) of 3.56 ± 0.21 and a protein stability index (treatment: MLN4924 1 uM, 8 h) of 3.71 ± 0.12.

DLAWMITFYVRFFLTYVPLLGLKA [FADS1] gave a protein stability index (treatment: DMSO) of 3.03 ± 0.11 and a protein stability index (treatment: MLN4924 1 uM, 8 h) of 3.62 ± 0.23.

On to DLIDVREVMERDAKDYADSIHAIF [RAB22A], for which the protein stability index stood at 3.16 ± 0.042 (treatment: DMSO) and 3.23 ± 0.38 (treatment: MLN4924 1 uM, 8 h).

DLPINVFKLLAGRWPFDHNDFGVF [EDNRA]: the protein stability index by setting is: (treatment: DMSO) 2.19 ± 0.7; (treatment: MLN4924 1 uM, 8 h) 2.19 ± 0.45.

As to DLRADDLPGPAFESYESMELACPA [KLHDC2], the protein stability index was determined as 4.84 ± 0.11 (treatment: DMSO) and 4.72 ± 0.34 (treatment: MLN4924 1 uM, 8 h).

As for DMLIREVVEKRLCMYEHGEDTHQS [RSPH3], the protein stability index by setting is: (treatment: DMSO) 3.7 ± 0.26; (treatment: MLN4924 1 uM, 8 h) 3.85 ± 0.28.

For DNAPVFTLPEYRVSVPENLPVGTQ [PCDHGA10], the protein stability index amounted to 4.54 ± 0.17 (treatment: DMSO) and 4.45 ± 0.26 (treatment: MLN4924 1 uM, 8 h).

On to DPHSGHFVALKSVRVPNGGGGGGG [CDK4], for which the protein stability index is, setting by setting: (treatment: DMSO) 4.01 ± 0.12; (treatment: MLN4924 1 uM, 8 h) 3.87 ± 0.33.

Take DQEMARDLVERALYSMECAFHPLF [TCF25]: the protein stability index by setting is: (treatment: DMSO) 2.35 ± 0.34; (treatment: MLN4924 1 uM, 8 h) 2.09 ± 0.35.

In the case of DQIEDMFEQGKWDVFSENLLADVK [STX11], the protein stability index turned out to be 3.75 ± 0.14 (treatment: DMSO) and 3.76 ± 0.3 (treatment: MLN4924 1 uM, 8 h).

Take DQKVIELVKKYGTKQWTLIAKHLK [MYBL2]: the protein stability index is, setting by setting: (treatment: DMSO) 2.77 ± 0.91; (treatment: MLN4924 1 uM, 8 h) 3.12 ± 0.49.

As to DQLIGQGIIVKDARLNGSVASYIL [TENT5D], the protein stability index reads like this: (treatment: DMSO) 2.3 ± 0.33; (treatment: MLN4924 1 uM, 8 h) 2.19 ± 0.45.

Turning to DRQYDSRGRFGELLLLLPTLQSIT [HNF4A], the protein stability index is, setting by setting: (treatment: DMSO) 2.35 ± 0.47; (treatment: MLN4924 1 uM, 8 h) 2.17 ± 0.21.

As for DRSVQRLLATRIAVYLMTFLIVTV [TMEM175], the protein stability index by setting is: (treatment: DMSO) 3.15 ± 0.3; (treatment: MLN4924 1 uM, 8 h) 3.31 ± 0.31.

Consider DRVVAFMDHIRIFQEQVEKLKALH [NR2F2], for which the protein stability index by setting is: (treatment: DMSO) 2.28 ± 0.36; (treatment: MLN4924 1 uM, 8 h) 2.22 ± 0.36.

DSASLPRKPSVPWQRQMDQPQDRN [RASAL3]: the protein stability index reads like this: (treatment: DMSO) 4.65 ± 0.22; (treatment: MLN4924 1 uM, 8 h) 4.78 ± 0.23.

Regarding DSEDFPQAAKQIKDGVTMAPAFRL [FSD1], the protein stability index runs as follows: (treatment: DMSO) 4.24 ± 0.11; (treatment: MLN4924 1 uM, 8 h) 4.33 ± 0.28.

Sequence DSPENGADSFESSDSLLQSWNSQS [ETS2] yielded a protein stability index (treatment: DMSO) of 5.11 ± 0.16 and a protein stability index (treatment: MLN4924 1 uM, 8 h) of 5.14 ± 0.15.

For DSPENMMRHIRFLKNEVERLKKQL [CCDC6], the protein stability index (treatment: DMSO) stood at 4.18 ± 0.31 and the protein stability index (treatment: MLN4924 1 uM, 8 h) came to 4.45 ± 0.35.

Regarding DSSLHWSSSYSPETFRQQFRQFGY [ZNF396], the protein stability index by setting is: (treatment: DMSO) 2.66 ± 0.31; (treatment: MLN4924 1 uM, 8 h) 2.56 ± 0.15.

DTLISQESCEKNDPLSLLDDSKFP [PCDHGA10]: the protein stability index by setting is: (treatment: DMSO) 5.05 ± 0.18; (treatment: MLN4924 1 uM, 8 h) 4.93 ± 0.2.

Turning to DYLTVKVWDLNMEARPIETYQVHD [PPP2R2C], the protein stability index reads like this: (treatment: DMSO) 2.69 ± 0.34; (treatment: MLN4924 1 uM, 8 h) 2.86 ± 0.16.

With DYLYTKQLSPNLDLDPLELIALAN [RHOBTB1], the protein stability index turned out to be 2.31 ± 0.28 (treatment: DMSO) and 2.3 ± 0.33 (treatment: MLN4924 1 uM, 8 h).

In the case of DYNQAEMKQRDNCKIRIQRQLEIM [STX11], the protein stability index is, setting by setting: (treatment: DMSO) 2.9 ± 0.19; (treatment: MLN4924 1 uM, 8 h) 3.15 ± 0.31.
